Measured values reported in US20140155325A1 (Janssen / Centocor, published 2014).
Blank lines part the entries; values can stand above or below the binder they belong to.

Assays:
[1] = molecular target: T1, human EGFR (epidermal growth factor receptor) on cells (human, UniProt P00533 25-1210); assay: cell-based or functional assay
[2] = molecular target: T1, human EGFR (epidermal growth factor …); assay: cell-based or functional assay; remark: listed apart in the source
[3] = molecular target: T1, human EGFR (epidermal growth factor …); assay: cell-based or functional assay; remark: listed apart in the source
[4] = molecular target: T1, human EGFR (epidermal growth factor …); assay: A431 cell EGF competition (biotinylated EGF)
[5] = molecular target: T2, recombinant human extracellular domain of EGFR fused to an IgG1 Fc (human, UniProt P00533 25-645); assay: SPR (ProteOn), EGFR-Fc captured by anti-human Fc
T2 construct: Bought from R&D Systems; captured on anti-human Fc IgG in the SPR assays; also called EGFR-Fc; recombinant EGFR extracellular domain; not shown: IgG1 Fc of the bought fusion protein (R&D Systems)
Experimental: Select EGFR-binding FN3 domains were screened to identify those with slow off-rates (koff) in binding to EGFR-Fc on a ProteOn XPR-36 instrument (Bio-Rad) to facilitate selection of high affinity binders. Goat anti-human Fc IgG (R&D systems), at a concentration of 5 μg/mL, was directly immobilized via amine coupling (at pH 5.0) on all 6 ligand channels in horizontal orientation on the chip with a flow rate of 30 μL/min in PBS containing 0.005% Tween-20. The immobilization densities averaged about 1500 Response Units (RU) with less than 5% variation among different channels. EGFR-Fc was captured on the anti-human Fc IgG surface to a density around 600 RU in vertical ligand orientation. All tested FN3 domains were normalized to a concentration of 1 μM and tested for their binding in horizontal orientation. All 6 analyte channels were used for the FN3 domains to maximize screening throughput. The dissociation phase was monitored for 10 minutes at a flow rate of 100 μL/min. The inter-spot binding signals were used as references to monitor non-specific binding between analytes and the immobilized IgG surface, and were subtracted from all binding responses. […]
Binding affinity of selected EGFR-binding FN3 domains to recombinant EGFR extracellular domain was further characterized by surface Plasmon resonance methods using a Proteon Instrument (BioRad). […]

[6] = molecular target: T1, human EGFR (epidermal growth factor …); assay: cell-based or functional assay; remark: listed apart in the source
[7] = molecular target: T1, human EGFR (epidermal growth factor …); assay: A431 cell binding, anti-His-Alexa488
[8] = molecular target: human EGFR (epidermal growth factor receptor) on cells (human) (UniProt P00533)
[9] = molecular target: human EGFR (epidermal growth factor receptor) on cells (human) (UniProt P00533); remark: listed apart in the source
[10] = molecular target: human EGFR (epidermal growth factor receptor) on cells (human) (UniProt P00533); assay: cell-based or functional assay
[11] = molecular target: human EGFR (epidermal growth factor receptor) on cells (human) (UniProt P00533); remark: listed apart in the source

IC50, inhibition of EGF-stimulated EGFR phosphorylation (relative pEGFR, RCLU) in H441 cells, +10 ng/mL EGF [+10ng/mL EGF), IC50 table] [1]: 70.2 nM
IC50, inhibition of EGF-stimulated EGFR phosphorylation (relative pEGFR, RCLU) in H292 cells, +50 ng/mL EGF [+50ng/mL EGF), IC50 table] [2]: 151 nM
IC50, inhibition of EGF-stimulated EGFR phosphorylation (relative pEGFR, RCLU) in H596 cells, +2.5 ng/mL EGF [+2.5ng/mL EGF), IC50 table] [3]: 35.4 nM
B1: P53A1R5-17 (designed binder, not shown: small tags and cut ends)
chain: LPAPKNLVVSEVTEDSLRLSWADPHGFYDSFLIQYQESEKVGEAINLTVPGSERSYDLTGLKPGTEYTVSIYGVHNVYKDTNMRGLPLSAEFTT

IC50 [4]: 7.1 nM
Kd [5]: 2.51 nM
NCI-H292 Growth IC50 [6]: 44 nM
NCI-H322 Growth IC50 [6]: 39 nM
Phospho-EGFR IC50 (EGF-stimulated, A431 cells) [6]: 295 nM
EC50 [7]: 8.6 nM
B2: P54AR4-47 (designed binder)
chain: LPAPKNLVVSEVTEDSLRLSWWDPFSFYDSFLIQYQESEKVGEAINLTVPGSERSYDLTGLKPGTEYTVSIYGVHNVYKDTNMRGLPLSAEFTT

IC50, inhibition of EGF-stimulated EGFR phosphorylation (relative pEGFR, RCLU) in H292 cells, +50 ng/mL EGF [+50ng/mL EGF), IC50 table] [8]: 76.6 nM
IC50, inhibition of EGF-stimulated EGFR phosphorylation (relative pEGFR, RCLU) in H441 cells, +10 ng/mL EGF [+10ng/mL EGF), IC50 table] [9]: 2.3 nM
fold decrease of the IC50 for inhibition of EGFR phosphorylation in NCI-H441 cells against monospecific P53A1R5-17v2 [10]: 30 fold
IC50, inhibition of EGF-stimulated EGFR phosphorylation (relative pEGFR, RCLU) in H596 cells, +2.5 ng/mL EGF [+2.5ng/mL EGF), IC50 table] [11]: 83.2 nM
B3: ECB5 (designed binder, not shown: small tags and cut ends)
chain: MLPAPKNLVVSEVTEDSARLSWADPHGFYDSFLIQYQESEKVGEAIVLTVPGSERSYDLTGLKPGTEYTVSIYGVHNVYKDTNMRGLPLSAIFTTGGGGSGGGGSGGGGSGGGGSMLPAPKNLVVSRVTEDSARLSWTAPDAAFDSFWIRYFEFLGSGEAIVLTVPGSERSYDLTGLKPGTEYVVNIMGVKGGKISPPLSAIFTT
